The results in this text go back to publication PMC10491584, “Structural convergence endows nuclear transport receptor Kap114p with a transcriptional repressor function toward TATA-binding protein” (Nature Communications, 2023).

The target in one assay is T1, Kap114pΔ(932-941) (S. cerevisiae, UniProt P53067 1-1004, Δ(932-941)).
T1 construct: also called GST-Kap114p (Δ932-941); source: E. coli Rosetta, purified (GST resin, MonoQ, Superdex 200)
T1 sequence (looked up): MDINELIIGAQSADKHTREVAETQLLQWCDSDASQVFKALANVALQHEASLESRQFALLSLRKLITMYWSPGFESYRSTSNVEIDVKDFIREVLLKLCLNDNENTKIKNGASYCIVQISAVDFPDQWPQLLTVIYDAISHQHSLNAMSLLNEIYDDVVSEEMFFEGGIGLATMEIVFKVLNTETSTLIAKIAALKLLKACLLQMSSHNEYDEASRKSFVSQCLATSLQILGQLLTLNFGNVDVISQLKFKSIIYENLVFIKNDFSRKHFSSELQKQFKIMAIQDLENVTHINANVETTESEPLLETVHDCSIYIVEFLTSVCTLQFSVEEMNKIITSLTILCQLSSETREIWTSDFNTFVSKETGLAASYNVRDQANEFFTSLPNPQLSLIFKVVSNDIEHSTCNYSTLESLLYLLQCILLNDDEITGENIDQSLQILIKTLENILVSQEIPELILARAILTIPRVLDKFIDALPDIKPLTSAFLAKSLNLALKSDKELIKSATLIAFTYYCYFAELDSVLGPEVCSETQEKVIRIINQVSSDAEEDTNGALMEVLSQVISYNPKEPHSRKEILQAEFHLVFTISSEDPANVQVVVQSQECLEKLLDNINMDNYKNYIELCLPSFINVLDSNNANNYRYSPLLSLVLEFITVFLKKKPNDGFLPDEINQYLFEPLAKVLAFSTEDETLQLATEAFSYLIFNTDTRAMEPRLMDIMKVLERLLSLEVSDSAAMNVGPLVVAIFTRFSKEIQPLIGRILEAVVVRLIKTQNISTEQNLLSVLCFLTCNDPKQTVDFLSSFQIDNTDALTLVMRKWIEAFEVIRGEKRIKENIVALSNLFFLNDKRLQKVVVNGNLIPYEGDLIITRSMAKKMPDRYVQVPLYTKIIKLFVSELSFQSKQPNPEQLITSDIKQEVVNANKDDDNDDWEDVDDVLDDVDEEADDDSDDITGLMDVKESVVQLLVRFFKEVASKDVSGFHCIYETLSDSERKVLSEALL
The assay can be described thus: ITC; MicroCal iTC200, 25 °C, 20 mM HEPES pH 7.4, 150 mM NaCl; low concentration: 25 µM wild type or mutant Kap114p in the sample cell, 250 µM wild type or mutant yTBPC in the syringe; triplicate. Particulars: both partners purified.

In another assay the target is T2, Kap114pΔ(848-875) (S. cerevisiae, UniProt P53067 1-1004, Δ(848-875)).
T2 construct: also called Kap114p(D848-875); source: E. coli (Rosetta strain), purified (GST resin, MonoQ, Superdex 200)
T2 sequence (looked up): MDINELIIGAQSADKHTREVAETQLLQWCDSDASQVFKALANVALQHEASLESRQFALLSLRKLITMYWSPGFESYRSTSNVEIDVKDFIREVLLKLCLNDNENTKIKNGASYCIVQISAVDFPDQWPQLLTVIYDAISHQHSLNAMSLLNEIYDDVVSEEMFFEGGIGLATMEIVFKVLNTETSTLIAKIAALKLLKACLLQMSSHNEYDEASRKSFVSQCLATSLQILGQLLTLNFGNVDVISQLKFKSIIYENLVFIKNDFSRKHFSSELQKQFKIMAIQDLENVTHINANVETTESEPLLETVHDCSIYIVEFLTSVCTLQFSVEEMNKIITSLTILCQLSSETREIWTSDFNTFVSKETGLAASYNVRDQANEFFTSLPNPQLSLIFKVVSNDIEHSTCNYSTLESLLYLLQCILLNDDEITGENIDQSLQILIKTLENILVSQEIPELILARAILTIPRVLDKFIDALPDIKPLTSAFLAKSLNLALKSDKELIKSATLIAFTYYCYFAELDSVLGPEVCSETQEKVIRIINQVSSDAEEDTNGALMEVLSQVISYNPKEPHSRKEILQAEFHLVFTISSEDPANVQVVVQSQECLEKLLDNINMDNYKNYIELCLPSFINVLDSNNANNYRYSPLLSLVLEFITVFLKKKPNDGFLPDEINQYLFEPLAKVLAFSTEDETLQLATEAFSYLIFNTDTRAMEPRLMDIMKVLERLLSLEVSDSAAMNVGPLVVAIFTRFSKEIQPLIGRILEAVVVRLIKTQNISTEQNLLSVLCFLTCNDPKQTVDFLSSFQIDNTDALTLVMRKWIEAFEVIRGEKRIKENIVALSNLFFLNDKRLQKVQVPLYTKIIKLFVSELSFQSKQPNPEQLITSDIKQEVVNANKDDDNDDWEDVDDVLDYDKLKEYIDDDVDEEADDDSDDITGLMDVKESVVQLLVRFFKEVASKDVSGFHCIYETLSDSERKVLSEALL
The assay can be described thus: ITC; Kap114p (wild type or mutant) 50 uM in the sample cell, partner 500 uM in the syringe; 25 °C; 20 mM HEPES pH 7.4, 150 mM NaCl; triplicate. Particulars: both partners purified.

“And” between values parts separate entries of the source, which are not always exact repeats. Equal entries are not always repeated.

B1: yTBP^C wild type (core domain of yeast TATA-box binding protein, a.a. 61-240) (domain or fragment, S. cerevisiae, UniProt P13393 61-240, looked up)
chain: SGIVPTLQNIVATVTLGCRLDLKTVALHARNAEYNPKRFAAVIMRIREPKTTALIFASGKMVVTGAKSEDDSKLASRKYARIIQKIGFAAKFTDFKIQNIVGSCDVKFPIRLEGLAFSHGTFSSYEPELFPGLIYRMVKPKIVLLIFVSGKIVLTGAKQREEIYQAFEAIYPVLSEFRKM
notes: modified pET28a, 6xHis tag followed by a PreScission site; also called yTBPC WT; His-yTBP (61-240); source: E. coli Rosetta, purified (Ni-NTA, HiTrap SP, Superdex 75); not shown: His6, N-terminal, cleaved
Consider B1, for which binding with Kap114pΔ(932-941) was put at a Kd of 79.9 nM.

B2: core domain of yTBP (a.a. 61-240) (domain or fragment, S. cerevisiae, UniProt P13393 61-240, looked up)
chain: B1 chain
notes: 61-240; also called yTBP^C; yTBPc; source: E. coli (Rosetta strain), purified (Ni-NTA, HiTrap SP, Superdex 75); not shown: 6xHis, N-terminal, cleaved
In the case of B2, in the assay with Kap114pΔ(848-875), the Ka was 4.16e+08 M⁻¹ and 7.85e+08 M⁻¹ and 6.96e+08 M⁻¹; the affinity, expressed as Kd, was 1.7 nM.
